Reference: patent US6416738B1, “Pretargeting methods and compounds” (NeoRx Corporation, priority 1973, dated 2002)

Molecular target: T1, NR-LU-10 antigen (Homo sapiens, UniProt P16422)
T1 construct: Positive NR-LU-10 tissue reactivity indicates NR-LU-10 antigen expression by such tissues; from tissue; host or cells: carcinoma and normal tissue specimens
T1 sequence (P16422 24-314): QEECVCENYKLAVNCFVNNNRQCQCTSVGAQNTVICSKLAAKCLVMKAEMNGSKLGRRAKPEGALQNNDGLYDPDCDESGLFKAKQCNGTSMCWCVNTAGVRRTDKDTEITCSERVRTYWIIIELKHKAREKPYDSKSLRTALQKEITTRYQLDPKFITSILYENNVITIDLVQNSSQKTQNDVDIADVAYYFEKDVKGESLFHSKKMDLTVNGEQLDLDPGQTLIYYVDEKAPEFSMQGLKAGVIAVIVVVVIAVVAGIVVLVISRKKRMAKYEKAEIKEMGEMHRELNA
Assay: NR-LU-10 reactivity with normal tissues (Table B)
Format: binding
Text: Radioimmunoassays, immunoprecipitation and Fluorescence-Activated Cell Sorter (FACS) analysis were used to obtain reactivity profiles of NR-LU-10. The NR-LU-10 target antigen was present on either fixed cultured cells or in detergent extracts of various types of cancer cells. For example, the NR-LU-10 antigen is found in small cell lung, non-small cell lung, colon, breast, renal, ovarian, pancreatic, and other carcinoma tissues. Tumor reactivity of the NR-LU-10 antibody is set forth in Table A, while NR-LU-10 reactivity with normal tissues is set forth in Table B. The values in Table B are obtained as described below. Positive NR-LU-10 tissue reactivity indicates NR-LU-10 antigen expression by such tissues.
The tissue specimens were scored in accordance with three reactivity parameters: (1) the intensity of the reaction; (2) the uniformity of the reaction within the cell type; and (3) the percentage of cells reactive with the antibody. These three values are combined into a single weighted comparative value between 0 and 500, with 500 being the most intense reactivity. This comparative value facilitates comparison of different tissues. Table B includes a summary reactivity value, the number of tissue samples examined and the number of samples that reacted positively with NR-LU-10.

[1] = Kidney: Distal Convoluted Tubules
[2] = Kidney: Proximal Convoluted Tubules
[3] = Liver: Central Lobular Hepatocyte
[4] = Lymph Node: Lymphoid Follicle-Central
[5] = Lymph Node: Lymphoid Follicle-Peripheral
[6] = Mammary Gland: Alveolar Epithelium

B1: NR-LU-10: 150 kilodalton IgG2b monoclonal antibody recognizing an approximately 40 kilodalton glycoprotein antigen expressed on most carcinomas (antibody, V domains shown)
VH: EVQLQQSGAELVKPGASVRLSCTASGFNIKDTYMHWVIERPEQGLEWIGRIDPANGNTKCDPKFQGKATITADTSSNTAYLQLSSLTSEDTAVYYCSREVLTGTWSLDYWGQGTSVTVSS
VL: DIQMIQSPSSMFASLGDRVSLSCRASQGIRGNLDWYQQKPGGTIKLLIYSTSNLNSGVPSRFSGSGSGSDYSLTISSLDSEDFADYYCLQRNAYPYTFGGGTKLEIK
Question: What does the source list for B1?
Answer: Summary Reactivity (Gall Bladder: Mucosal Epithelium): 467; # Pos/Exam (Gall Bladder: Smooth Muscle): 0/3; Summary Reactivity (Gall Bladder: Smooth Muscle): 0; # Pos/Exam (Heart: Myocardium): 0/3; Summary Reactivity (Heart: Myocardium): 0; # Pos/Exam (Heart: Serosa): 0/1; Summary Reactivity (Heart: Serosa): 0; # Pos/Exam (Ileum: Lymph Node): 0/2; Summary Reactivity (Ileum: Lymph Node): 0; # Pos/Exam (Ileum: Mucosal Epithelium): 0/2; Summary Reactivity (Ileum: Mucosal Epithelium): 0; # Pos/Exam (Ileum: Muscularis Externa): 0/1; Summary Reactivity (Ileum: Muscularis Externa): 0; # Pos/Exam (Ileum: Muscularis Mucosa): 0/2; Summary Reactivity (Ileum: Muscularis Mucosa): 0; # Pos/Exam (Ileum: Nerve Ganglia): 0/1; Summary Reactivity (Ileum: Nerve Ganglia): 0; # Pos/Exam (Ileum: Serosa): 0/1; Summary Reactivity (Ileum: Serosa): 0; # Pos/Exam (Jejunum: Lymph Node): 0/1; Summary Reactivity (Jejunum: Lymph Node): 0; # Pos/Exam (Jejunum: Mucosal Epithelium): 2/2; Summary Reactivity (Jejunum: Mucosal Epithelium): 400; # Pos/Exam (Jejunum: Muscularis Externa): 0/2; Summary Reactivity (Jejunum: Muscularis Externa): 0; # Pos/Exam (Jejunum: Muscularis Mucosa): 0/2; Summary Reactivity (Jejunum: Muscularis Mucosa): 0; # Pos/Exam (Jejunum: Nerve Ganglia): 0/2; Summary Reactivity (Jejunum: Nerve Ganglia): 0; # Pos/Exam (Jejunum: Serosa): 0/1; Summary Reactivity (Jejunum: Serosa): 0; # Pos/Exam (Kidney: Collecting Tubules): 2/3; Summary Reactivity (Kidney: Collecting Tubules): 160; # Pos/Exam [1]: 3/3; Summary Reactivity [1]: 500; # Pos/Exam (Kidney: Glomerular Eipithelium): 0/3; Summary Reactivity (Kidney: Glomerular Eipithelium): 0; # Pos/Exam (Kidney: Mesangial): 0/3; Summary Reactivity (Kidney: Mesangial): 0; # Pos/Exam [2]: 3/3; Summary Reactivity [2]: 500; # Pos/Exam (Liver: Bile Duct): 3/3; Summary Reactivity (Liver: Bile Duct): 500; # Pos/Exam [3]: 1/3; Summary Reactivity [3]: 4; # Pos/Exam (Liver: Kupffer Cells): 0/3; Summary Reactivity (Liver: Kupffer Cells): 0; # Pos/Exam (Liver: Periportal Hepatocyte): 1/3; Summary Reactivity (Liver: Periportal Hepatocyte): 40; # Pos/Exam (Lung: Alveolar Macrophage): 0/3; Summary Reactivity (Lung: Alveolar Macrophage): 0; # Pos/Exam (Lung: Bronchial Epithelium): 0/2; Summary Reactivity (Lung: Bronchial Epithelium): 0; # Pos/Exam (Lung: Bronchial Smooth Muscle): 0/2; Summary Reactivity (Lung: Bronchial Smooth Muscle): 0; # Pos/Exam (Lung: Pneumocyte Type I): 3/3; Summary Reactivity (Lung: Pneumocyte Type I): 354; # Pos/Exam (Lung: Pneumocyte Type II): 3/3; Summary Reactivity (Lung: Pneumocyte Type II): 387; # Pos/Exam [4]: 0/3; Summary Reactivity [4]: 0; # Pos/Exam [5]: 0/3; Summary Reactivity [5]: 0; # Pos/Exam [6]: 3/3; Summary Reactivity [6]: 500; # Pos/Exam (Mammary Gland: Duct Epithelium): 3/3; Summary Reactivity (Mammary Gland: Duct Epithelium): 500; # Pos/Exam (Mammary Gland: Myoepithelium): 0/3; Summary Reactivity (Mammary Gland: Myoepithelium): 0; # Pos/Exam (Muscle Skeletal: Muscle Fiber): 0/3; Summary Reactivity (Muscle Skeletal: Muscle Fiber): 0; # Pos/Exam (Nerve: Axon, Myelinated): 0/2; Summary Reactivity (Nerve: Axon, Myelinated): 0; # Pos/Exam (Nerve: Endoneurium): 0/2
